From IntAct's records for PubMed 22493500 come the findings set out here.

The labels stand for the following.
B1: Colicin-A (Citrobacter freundii), P04480 (parent)
chain: MPGFNYGGKGDGTGWSSERGSGPEPGGGSHGNSGGHDRGDSSNVGNESVTVMKPGDSYNTPWGKVIINAAGQPTMNGTVMTADNSSMVPYGRGFTRVLNSLVNNPVSPAGQNGGKSPVQTAVENYLMVQSGNLPPGYWLSNGKVMTEVREERTSGGGGKNGNERTWTVKVPREVPQLTASYNEGMRIRQEAADRARAEANARALAEEEARAIASGKSKAEFDAGKRVEAAQAAINTAQLNVNNLSGAVSAANQVITQKQAEMTPLKNELAAANQRVQETLKFINDPIRSRIHFNMRSGLIRAQHNVDTKQNEINAAVANRDALNSQLSQANNILQNARNEKSAADAALSAATAQRLQAEAALRAAAEAAEKARQRQAEEAERQRQAMEVAEKAKDERELLEKTSELIAGMGDKIGEHLGDKYKAIAKDIADNIKNFQGKTIRSFDDAMASLNKITANPAMKINKADRDALVNAWKHVDAQDMANKLGNLSKAFKVADVVMKVEKVREKSIEGYETGNWGPLMLEVESWVLSGIASSVALGIFSATLGAYALSLGVPAIAVGIAGILLAAVVGALIDDKFADALNNEIIRPAH
partner: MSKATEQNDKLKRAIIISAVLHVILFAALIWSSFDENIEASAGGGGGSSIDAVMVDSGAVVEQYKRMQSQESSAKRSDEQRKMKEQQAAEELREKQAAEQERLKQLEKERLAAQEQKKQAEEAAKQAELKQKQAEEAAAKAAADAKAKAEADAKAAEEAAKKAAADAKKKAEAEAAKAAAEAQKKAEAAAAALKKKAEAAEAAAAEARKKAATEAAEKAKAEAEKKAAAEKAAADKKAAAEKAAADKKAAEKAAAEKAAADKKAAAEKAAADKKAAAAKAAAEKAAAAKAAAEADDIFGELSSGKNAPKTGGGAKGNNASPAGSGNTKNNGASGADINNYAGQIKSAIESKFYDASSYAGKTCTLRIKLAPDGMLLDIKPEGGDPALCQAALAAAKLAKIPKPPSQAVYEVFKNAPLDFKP

The variants in this test derive from B1. Conditions: with tola_ecoli tolA.
On to MPGFNYGGKGDGTGWSSERGSGPEPGGGSHGNSGGHDRGDSSNVGNESVTVMKPGDSANTPWGKVIINAAGQPTMNGTVMTADNSSMVPYGRGFTRVLNSLVNNPVSPAGQNGGKSPVQTAVENYLMVQSGNLPPGYWLSNGKVMTEVREERTSGGGGKNGNERTWTVKVPREVPQLTASYNEGMRIRQEAADRARAEANARALAEEEARAIASGKSKAEFDAGKRVEAAQAAINTAQLNVNNLSGAVSAANQVITQKQAEMTPLKNELAAANQRVQETLKFINDPIRSRIHFNMRSGLIRAQHNVDTKQNEINAAVANRDALNSQLSQANNILQNARNEKSAADAALSAATAQRLQAEAALRAAAEAAEKARQRQAEEAERQRQAMEVAEKAKDERELLEKTSELIAGMGDKIGEHLGDKYKAIAKDIADNIKNFQGKTIRSFDDAMASLNKITANPAMKINKADRDALVNAWKHVDAQDMANKLGNLSKAFKVADVVMKVEKVREKSIEGYETGNWGPLMLEVESWVLSGIASSVALGIFSATLGAYALSLGVPAIAVGIAGILLAAVVGALIDDKFADALNNEIIRPAH [Y58A], for which the “effect of a mutation on the interaction” value is given as “disrupting interaction”.
